Measured values: a protein production outcome set (Wang et al. 2014)

Assay: label from the status in PepcDB records

| Sequence | protein production |
| --- | --- |
| MSLDYTYADDSLTLHTDMYQINMMQTYWELGRADLHAVFECYFREMPFNHGYAIFAGLERLVNYLENLTFTESDIAYLREVEEYPEDFLTYLANFEFKCTVRSALEGDLVFNNEPLIQIEGPLAQCQLVETALLNMVNFQTLIATKAARIKSVIGDDPLLEFGTRRAQELDAAIWGTRAAYIGGADATSNVRAGKIFGIPVSGTHAHSLVQSYGNDYEAFMAYAKTHRDCVFLVDTYDTLKAGVPSAIRVAREMGDKINFLGVRIDSGDMAYISKRVREQLDEAGFTEAKIYASNDLDENTILNLKMQKSKIDVWGVGTKLITAYDQPALGAVFKLVSIEGEDGQMKDTIKLSSNAEKVTTPGKKQVWRITRKSDKKSEGDYVTLWNEDPRQEEEIYMFHPVHTFINKYVRDFEARPVLQDIFVEGKRVYELPTLDEIKQYAKENLDSLWEEYKRDLNPQKYPVDLSTDCWNHKMNLLEKVRKDVKHLTETVNKEAEGHHHHHH | not failed |
| MSLEAIRIGEINSYSQIPAFTLPYRNGWQLAVEQINAAGGLLGGRPLEVISRDDGGDPGKAVTAAQELLTRHGVHALAGTFLSHVGLAVSDFARQRKVLFMASEPLTDALTWEKGNRYTYRLRPSTYMQAAMLAAEAAKLPITRWATIAPNYEYGQSAVARFKELLLAARPEVTFVAEQWPALYKLDAGPTVQALQQAEPEGLFNVLFGADLPKFVREGRVRGLFAGRQVVSMLTGEPEYLNPLKDEAPEGWIVTGYPWYDIDTAPHRAFVEAYRARWKEDPFVGSLVGYNTLTAMAVAFEKAGGTESETLVETLKDMAFSTPMGPLSFRASDHQSTMGAWVGRTALRDGKGVMVDWRYVDGGSVLPPPEVVSAWRPAGEGHHHHHH | not failed |
| MSLEFFMAKADNPAFEQGQSPRMRLPDSVPLLIVGGGIMGLWAAVKAERLGIGTLLVEAGRLGGGASGGLLGALMPHMPDRWSDKKQFQFDALVALEAEIAGLEAETGLSGGYRRCGRIIPLPKPHLRGIAERHERDAAENWRSGERRFQWHVGERPSVAGWVDDAAGEAGFVFDTLAARVSPRALIALLSAFLRKARHVQVAEGCRVVSLDADAGRAALSSGEEISFGHVVVANGHESFPLIRDALGLEAGVALGQAVKGQAALLDASADPAMPVVFLNGLYIVPHEDGTVAIGSTSEDCFSEPFSTDEKLEKLLVDACTVVPSLAGAPVLERWAGLRPKAVGRDPMVGAMAGTAKLVALSGGFKVSFGLAHFLADAALETVCGHTPVIPSGFRLQEHVSIAVPDFRKFLEHHHHHH | failed |
| MSLEKQKGLAIITGASQGIGAVIAAGLATDGYRVVLIARSKQNLEKVHDEIMRSNKHVQEPIVLPLDITDCTKADTEIKDIHQKYGAVDILVNAAAMFMDGSLSEPVDNFRKIMEINVIAQYGILKTVTEIMKVQKNGYIFNVASRAAKYGFADGGIYGSTKFALLGLAESLYRELAPLGIRVTTLCPGWVNTDMAKKAGTPFKDEEMIQPDDLLNTIRCLLNLSENVCIKDIVFEMKKSIIEGHHHHHH | not failed |
| MSLEKWRIYEELTNAVREFESINPVRLIPEVGTNFVYSLPLPYARSTKDVAGVKGRIVKYGNSVKAVGPVEFGASDHLARAVLTYMRFYPEYRSAINIRYSREIIEEIIEIAQERGFKVSFYDRREEPEEIKAKEGATIPWGIETAIKRIKERPDIIYHLGDVGKEPMILVFGRNPREVLEKIKMLIEGHHHHHH | not failed |
| MSLELEWMSIDDLKLPSNVIDIIKNRGIKKLNPPQTEAVKKGLLDGNRLLLTSPTGSGKTLIAEMGIISFLLKNGGKAIYVTPLRALTNEKYLTFKDWESIGFKVAMTSGDYDTDDAWLKNYDIIITTYEKLDSLWRHRPDWLNEANYFVLDELHYLNDPERGPVVESVTIRAKRRNLLALSATISNYKQIAKWLGAEPVATNWRPVPLMEGVMYPERKKKEYTILFRDNTARKVHGDDAIIAYTLDSLSKNGQVLVFRNSRKMAESTALKIANYMNFVSLDEKAISEILKQLDDIEEGGSDEKELLKSLISKGVAYHHAGLSKALRDIIEESFRKRKIKVIVATPTLAAGVNLPARTVIIGDIYRFNRKIVGYYDEIPVMEYKQMSGRAGRPGFDQIGESIIVVRDKEDVDRVFKKYILSDVEPIESKLGSERAFYTFLLGILSAEGSLSEKQLEAFAYESLLAKSVVDVYFDRAIRWLSEHSFIREENNTFTLTNFGKRVADLYINPFTADIIRKGLEGYKASCEIAYLHLLAFTPDGPLVSVGRNEEEELIELLEDLECELLVEEPYEEDEYSLYLNALKVALIMKDWIDEVDEDTILGKYNIGSGDLRNIVETMDWLTYSAYHLSKELRLDDHSDKLRILNLRVTDGVKEELLELVQIGGVGRKRARLLYNNGIKGLGDVVMNPDRVRNLLGQKLGERVVQEAARLLNRFH | failed |
